Patent US20260001928A1 (CORTERIA PHARMACEUTICALS, priority 2022, published 2026)
*1 amine or outer side, *2 acyl side, *3 side chain or, on linkers, in order; H or OH if unused. Where no end group is shown, it is not given here. Side-chain parts run from the residue outwards. [ ]: non-standard residue; d: D form. The star is where a group is joined. C20 diacid = O=C(O)CCCCCCCCCCCCCCCCCCC(=O)*; γGlu = O=C(O)[C@H](CCC(=O)[*:2])N[*:1]; NMeI = CC[C@H](C)[C@H](NC)C(=O)O; Aib = CC(C)(N)C(=O)O

T1: CRF1R (corticotropin-releasing factor receptor 1), on the CRF1R-overexpression CHO-K1 cell line clone 2 (UniProt P34998 24-415, limits assumed)
T1 sequence (looked up): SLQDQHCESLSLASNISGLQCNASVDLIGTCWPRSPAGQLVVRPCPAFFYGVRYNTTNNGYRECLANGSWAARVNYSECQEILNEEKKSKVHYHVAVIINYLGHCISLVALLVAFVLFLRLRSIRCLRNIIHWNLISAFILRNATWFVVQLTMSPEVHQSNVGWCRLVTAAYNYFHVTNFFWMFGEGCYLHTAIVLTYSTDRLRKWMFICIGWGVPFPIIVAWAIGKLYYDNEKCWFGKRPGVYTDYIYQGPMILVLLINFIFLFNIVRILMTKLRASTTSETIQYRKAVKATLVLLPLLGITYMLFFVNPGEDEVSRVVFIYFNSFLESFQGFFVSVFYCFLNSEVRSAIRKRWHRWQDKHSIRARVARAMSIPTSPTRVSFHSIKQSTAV


What was measured:
[1] = target: T1, CRF1R (corticotropin-releasing factor …); assay: cell-based or functional assay
[2] = target: Rat CRF2 a (corticotropin-releasing factor receptor 2), on the A7R5 rat aortic smooth muscle cell line (rat, UniProt P47866 20-411); assay: cell-based or functional assay
Chain of Rat CRF2 a (corticotropin-releasing factor receptor 2), on the A7R5 rat aortic smooth muscle cell line (P47866 20-411): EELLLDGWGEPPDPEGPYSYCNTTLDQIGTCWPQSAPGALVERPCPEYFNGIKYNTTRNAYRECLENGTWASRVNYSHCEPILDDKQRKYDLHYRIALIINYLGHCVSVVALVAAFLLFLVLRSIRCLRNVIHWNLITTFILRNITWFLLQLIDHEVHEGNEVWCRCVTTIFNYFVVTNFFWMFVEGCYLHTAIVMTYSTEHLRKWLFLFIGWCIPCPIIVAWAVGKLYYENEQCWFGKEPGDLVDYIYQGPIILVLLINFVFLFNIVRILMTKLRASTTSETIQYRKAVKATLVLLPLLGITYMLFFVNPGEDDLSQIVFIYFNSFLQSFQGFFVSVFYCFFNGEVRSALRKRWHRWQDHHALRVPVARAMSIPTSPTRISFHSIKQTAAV

EC50 [nM] (cAMP, CRF1R-overexpression CHO-K1 cells) [1] | Emax (% I) (cAMP, 100% = Sauvagine at 100 nM) [1] | EC50 [nM] 0% HSA (cAMP, A7R5 rat aortic smooth muscle cells) [2] | Binder
> 250 nM | 8 % I | 0.09 nM | Ac-IVLSLD[dV]PIKLK([γGlu-γGlu-C20 diacid])KILLEQEKQKKQREQAETN[Aib]QILAQV-NH2 (SMILES CC[C@H](C)[C@H](NC(C)=O)C(=O)N[C@H](C(=O)N[C@@H](CC(C)C)C(=O)N[C@@H](CO)C(=O)N[C@@H](CC(C)C)C(=O)N[C@@H](CC(=O)O)C(=O)N[C@@H](C(=O)N1CCC[C@H]1C(=O)N[C@H](C(=O)N[C@@H](CCCCN)C(=O)N[C@@H](CC(C)C)C(=O)N[C@@H](CCCCNC(=O)CC[C@H](NC(=O)CC[C@H](NC(=O)CCCCCCCCCCCCCCCCCCC(=O)O)C(=O)O)C(=O)O)C(=O)N[C@@H](CCCCN)C(=O)N[C@H](C(=O)N[C@@H](CC(C)C)C(=O)N[C@@H](CC(C)C)C(=O)N[C@@H](CCC(=O)O)C(=O)N[C@@H](CCC(N)=O)C(=O)N[C@@H](CCC(=O)O)C(=O)N[C@@H](CCCCN)C(=O)N[C@@H](CCC(N)=O)C(=O)N[C@@H](CCCCN)C(=O)N[C@@H](CCCCN)C(=O)N[C@@H](CCC(N)=O)C(=O)N[C@@H](CCCNC(=N)N)C(=O)N[C@@H](CCC(=O)O)C(=O)N[C@@H](CCC(N)=O)C(=O)N[C@@H](C)C(=O)N[C@@H](CCC(=O)O)C(=O)N[C@H](C(=O)N[C@@H](CC(N)=O)C(=O)NC(C)(C)C(=O)N[C@@H](CCC(N)=O)C(=O)N[C@H](C(=O)N[C@@H](CC(C)C)C(=O)N[C@@H](C)C(=O)N[C@@H](CCC(N)=O)C(=O)N[C@H](C(N)=O)C(C)C)[C@@H](C)CC)[C@@H](C)O)[C@@H](C)CC)[C@@H](C)CC)C(C)C)C(C)C) [peptide of SEQ ID NO: 243]
> 250 nM | 7 % I | 3.52 nM | Ac-IVLSLD[dV]PIKLK([γGlu-γGlu-C20 diacid])KILLEQEKQKEQREQAETN[Aib]QILAQV-NH2 (SMILES CC[C@H](C)[C@H](NC(C)=O)C(=O)N[C@H](C(=O)N[C@@H](CC(C)C)C(=O)N[C@@H](CO)C(=O)N[C@@H](CC(C)C)C(=O)N[C@@H](CC(=O)O)C(=O)N[C@@H](C(=O)N1CCC[C@H]1C(=O)N[C@H](C(=O)N[C@@H](CCCCN)C(=O)N[C@@H](CC(C)C)C(=O)N[C@@H](CCCCNC(=O)CC[C@H](NC(=O)CC[C@H](NC(=O)CCCCCCCCCCCCCCCCCCC(=O)O)C(=O)O)C(=O)O)C(=O)N[C@@H](CCCCN)C(=O)N[C@H](C(=O)N[C@@H](CC(C)C)C(=O)N[C@@H](CC(C)C)C(=O)N[C@@H](CCC(=O)O)C(=O)N[C@@H](CCC(N)=O)C(=O)N[C@@H](CCC(=O)O)C(=O)N[C@@H](CCCCN)C(=O)N[C@@H](CCC(N)=O)C(=O)N[C@@H](CCCCN)C(=O)N[C@@H](CCC(=O)O)C(=O)N[C@@H](CCC(N)=O)C(=O)N[C@@H](CCCNC(=N)N)C(=O)N[C@@H](CCC(=O)O)C(=O)N[C@@H](CCC(N)=O)C(=O)N[C@@H](C)C(=O)N[C@@H](CCC(=O)O)C(=O)N[C@H](C(=O)N[C@@H](CC(N)=O)C(=O)NC(C)(C)C(=O)N[C@@H](CCC(N)=O)C(=O)N[C@H](C(=O)N[C@@H](CC(C)C)C(=O)N[C@@H](C)C(=O)N[C@@H](CCC(N)=O)C(=O)N[C@H](C(N)=O)C(C)C)[C@@H](C)CC)[C@@H](C)O)[C@@H](C)CC)[C@@H](C)CC)C(C)C)C(C)C) [peptide of SEQ ID NO: 241]
> 250 nM | 6 % I | 0.4 nM | [NMeI]VLSLD[dV]PIKLK([γGlu-γGlu-C20 diacid])KILLEQEKQKEQREQAETN[Aib]QILAQV-NH2 (N-terminus assumed; SMILES CC[C@H](C)[C@H](NC)C(=O)N[C@H](C(=O)N[C@@H](CC(C)C)C(=O)N[C@@H](CO)C(=O)N[C@@H](CC(C)C)C(=O)N[C@@H](CC(=O)O)C(=O)N[C@@H](C(=O)N1CCC[C@H]1C(=O)N[C@H](C(=O)N[C@@H](CCCCN)C(=O)N[C@@H](CC(C)C)C(=O)N[C@@H](CCCCNC(=O)CC[C@H](NC(=O)CC[C@H](NC(=O)CCCCCCCCCCCCCCCCCCC(=O)O)C(=O)O)C(=O)O)C(=O)N[C@@H](CCCCN)C(=O)N[C@H](C(=O)N[C@@H](CC(C)C)C(=O)N[C@@H](CC(C)C)C(=O)N[C@@H](CCC(=O)O)C(=O)N[C@@H](CCC(N)=O)C(=O)N[C@@H](CCC(=O)O)C(=O)N[C@@H](CCCCN)C(=O)N[C@@H](CCC(N)=O)C(=O)N[C@@H](CCCCN)C(=O)N[C@@H](CCC(=O)O)C(=O)N[C@@H](CCC(N)=O)C(=O)N[C@@H](CCCNC(=N)N)C(=O)N[C@@H](CCC(=O)O)C(=O)N[C@@H](CCC(N)=O)C(=O)N[C@@H](C)C(=O)N[C@@H](CCC(=O)O)C(=O)N[C@H](C(=O)N[C@@H](CC(N)=O)C(=O)NC(C)(C)C(=O)N[C@@H](CCC(N)=O)C(=O)N[C@H](C(=O)N[C@@H](CC(C)C)C(=O)N[C@@H](C)C(=O)N[C@@H](CCC(N)=O)C(=O)N[C@H](C(N)=O)C(C)C)[C@@H](C)CC)[C@@H](C)O)[C@@H](C)CC)[C@@H](C)CC)C(C)C)C(C)C) [peptide of SEQ ID NO: 242]
> 250 nM | 8 % I | 1.77 nM | Ac-IVLSLD[dV]PIKLK([γGlu-γGlu-C20 diacid])KILLEQEKQKAQREQAETN[Aib]QILAQV-NH2 (SMILES CC[C@H](C)[C@H](NC(C)=O)C(=O)N[C@H](C(=O)N[C@@H](CC(C)C)C(=O)N[C@@H](CO)C(=O)N[C@@H](CC(C)C)C(=O)N[C@@H](CC(=O)O)C(=O)N[C@@H](C(=O)N1CCC[C@H]1C(=O)N[C@H](C(=O)N[C@@H](CCCCN)C(=O)N[C@@H](CC(C)C)C(=O)N[C@@H](CCCCNC(=O)CC[C@H](NC(=O)CC[C@H](NC(=O)CCCCCCCCCCCCCCCCCCC(=O)O)C(=O)O)C(=O)O)C(=O)N[C@@H](CCCCN)C(=O)N[C@H](C(=O)N[C@@H](CC(C)C)C(=O)N[C@@H](CC(C)C)C(=O)N[C@@H](CCC(=O)O)C(=O)N[C@@H](CCC(N)=O)C(=O)N[C@@H](CCC(=O)O)C(=O)N[C@@H](CCCCN)C(=O)N[C@@H](CCC(N)=O)C(=O)N[C@@H](CCCCN)C(=O)N[C@@H](C)C(=O)N[C@@H](CCC(N)=O)C(=O)N[C@@H](CCCNC(=N)N)C(=O)N[C@@H](CCC(=O)O)C(=O)N[C@@H](CCC(N)=O)C(=O)N[C@@H](C)C(=O)N[C@@H](CCC(=O)O)C(=O)N[C@H](C(=O)N[C@@H](CC(N)=O)C(=O)NC(C)(C)C(=O)N[C@@H](CCC(N)=O)C(=O)N[C@H](C(=O)N[C@@H](CC(C)C)C(=O)N[C@@H](C)C(=O)N[C@@H](CCC(N)=O)C(=O)N[C@H](C(N)=O)C(C)C)[C@@H](C)CC)[C@@H](C)O)[C@@H](C)CC)[C@@H](C)CC)C(C)C)C(C)C) [peptide of SEQ ID NO: 244]
